In patent US20190185537A1 (AstraZeneca / MedImmune, published 2019):
Numbered stars: 1 amine (or outer) side, 2 acyl side, 3 side chain; on linkers, the order of the positions; unused ones are H or OH. Side chains are listed from the residue outwards. Ends that are not written are not given here. * marks the point of attachment. γGlu = O=C(O)[C@H](CCC(=O)[*:2])N[*:1]; Palmitoyl = CCCCCCCCCCCCCCCC(=O)*

T1: human glucose-dependent insulinotropic peptide (gastric inhibitory polypeptide) receptor (human) (UniProt P48546)
T1 sequence (looked up): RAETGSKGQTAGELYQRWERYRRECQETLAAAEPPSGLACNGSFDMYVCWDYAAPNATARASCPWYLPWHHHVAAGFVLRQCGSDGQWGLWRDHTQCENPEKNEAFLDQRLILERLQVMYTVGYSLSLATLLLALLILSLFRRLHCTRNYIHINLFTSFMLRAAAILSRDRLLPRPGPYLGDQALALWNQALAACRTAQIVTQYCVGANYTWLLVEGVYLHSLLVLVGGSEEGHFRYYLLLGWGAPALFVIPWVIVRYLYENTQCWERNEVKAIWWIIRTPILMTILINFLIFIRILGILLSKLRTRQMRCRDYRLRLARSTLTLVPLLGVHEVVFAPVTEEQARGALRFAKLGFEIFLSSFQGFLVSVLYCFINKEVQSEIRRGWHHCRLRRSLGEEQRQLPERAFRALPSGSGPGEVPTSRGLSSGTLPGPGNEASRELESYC


Columns and labels:
Experiment in all cases: cell-based or functional assay
[1] = biological target: human glucagon receptor (human, UniProt P47871 26-477)
[2] = biological target: human GLP-1 receptor (human, UniProt P43220 24-463)
[3] = biological target: T1, human glucose-dependent insulinotropic peptide (gastric inhibitory polypeptide) receptor (human)

Sequence of human glucagon receptor (P47871 26-477): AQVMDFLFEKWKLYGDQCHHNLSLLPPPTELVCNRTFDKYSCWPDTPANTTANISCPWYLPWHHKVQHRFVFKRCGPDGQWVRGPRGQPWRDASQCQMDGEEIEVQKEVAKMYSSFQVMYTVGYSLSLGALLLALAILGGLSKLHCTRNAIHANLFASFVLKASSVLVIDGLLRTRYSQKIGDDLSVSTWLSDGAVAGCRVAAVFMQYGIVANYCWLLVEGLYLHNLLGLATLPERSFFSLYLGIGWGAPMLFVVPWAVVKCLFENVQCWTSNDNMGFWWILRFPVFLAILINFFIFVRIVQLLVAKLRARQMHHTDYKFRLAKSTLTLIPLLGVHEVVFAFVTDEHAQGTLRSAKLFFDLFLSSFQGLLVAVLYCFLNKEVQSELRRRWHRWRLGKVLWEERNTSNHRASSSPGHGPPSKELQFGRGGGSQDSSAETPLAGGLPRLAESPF
Sequence of human GLP-1 receptor (P43220 24-463): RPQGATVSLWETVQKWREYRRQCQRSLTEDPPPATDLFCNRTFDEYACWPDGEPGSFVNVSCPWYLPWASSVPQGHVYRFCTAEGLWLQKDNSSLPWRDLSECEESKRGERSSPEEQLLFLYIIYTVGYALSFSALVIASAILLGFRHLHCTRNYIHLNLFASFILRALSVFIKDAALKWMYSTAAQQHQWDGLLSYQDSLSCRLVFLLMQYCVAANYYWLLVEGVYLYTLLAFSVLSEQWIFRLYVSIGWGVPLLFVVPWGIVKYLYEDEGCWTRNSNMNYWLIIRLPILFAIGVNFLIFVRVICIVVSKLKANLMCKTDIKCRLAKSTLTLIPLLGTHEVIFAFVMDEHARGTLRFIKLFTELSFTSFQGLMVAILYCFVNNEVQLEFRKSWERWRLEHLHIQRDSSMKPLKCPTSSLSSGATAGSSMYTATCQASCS

cAMP EC50 (assay 1) [1] [nM] | cAMP EC50 (assay 1) [2] [nM] | cAMP EC50 (assay 1) [3] [nM] | Binder
1.81 | 0.0964 | 91.2 | HSQGTFTSDYSEK([γGlu-Palmitoyl])LDSERARDFVAWLVAGG-NH2 (N-terminus assumed; SMILES CCCCCCCCCCCCCCCC(=O)N[C@@H](CCC(=O)NCCCC[C@H](NC(=O)[C@H](CCC(=O)O)NC(=O)[C@H](CO)NC(=O)[C@H](Cc1ccc(O)cc1)NC(=O)[C@H](CC(=O)O)NC(=O)[C@H](CO)NC(=O)[C@@H](NC(=O)[C@H](Cc1ccccc1)NC(=O)[C@@H](NC(=O)CNC(=O)[C@H](CCC(N)=O)NC(=O)[C@H](CO)NC(=O)[C@@H](N)Cc1c[nH]cn1)[C@@H](C)O)[C@@H](C)O)C(=O)N[C@@H](CC(C)C)C(=O)N[C@@H](CC(=O)O)C(=O)N[C@@H](CO)C(=O)N[C@@H](CCC(=O)O)C(=O)N[C@@H](CCCNC(=N)N)C(=O)N[C@@H](C)C(=O)N[C@@H](CCCNC(=N)N)C(=O)N[C@@H](CC(=O)O)C(=O)N[C@@H](Cc1ccccc1)C(=O)N[C@H](C(=O)N[C@@H](C)C(=O)N[C@@H](Cc1c[nH]c2ccccc12)C(=O)N[C@@H](CC(C)C)C(=O)N[C@H](C(=O)N[C@@H](C)C(=O)NCC(=O)NCC(N)=O)C(C)C)C(C)C)C(=O)O) [g802]
0.0279 | 0.0272 | 6.41 | HSQGTFTSDYSKYLDSRRAQDFVQWLVAGGKNNRNNIAK-NH2 [g321]
2.44 | 0.169 | 395 | HSQGTFTSDYSK([γGlu-Palmitoyl])YLDSERARDFVAWLVAGG-NH2 (N-terminus assumed; SMILES CCCCCCCCCCCCCCCC(=O)N[C@@H](CCC(=O)NCCCC[C@H](NC(=O)[C@H](CO)NC(=O)[C@H](Cc1ccc(O)cc1)NC(=O)[C@H](CC(=O)O)NC(=O)[C@H](CO)NC(=O)[C@@H](NC(=O)[C@H](Cc1ccccc1)NC(=O)[C@@H](NC(=O)CNC(=O)[C@H](CCC(N)=O)NC(=O)[C@H](CO)NC(=O)[C@@H](N)Cc1c[nH]cn1)[C@@H](C)O)[C@@H](C)O)C(=O)N[C@@H](Cc1ccc(O)cc1)C(=O)N[C@@H](CC(C)C)C(=O)N[C@@H](CC(=O)O)C(=O)N[C@@H](CO)C(=O)N[C@@H](CCC(=O)O)C(=O)N[C@@H](CCCNC(=N)N)C(=O)N[C@@H](C)C(=O)N[C@@H](CCCNC(=N)N)C(=O)N[C@@H](CC(=O)O)C(=O)N[C@@H](Cc1ccccc1)C(=O)N[C@H](C(=O)N[C@@H](C)C(=O)N[C@@H](Cc1c[nH]c2ccccc12)C(=O)N[C@@H](CC(C)C)C(=O)N[C@H](C(=O)N[C@@H](C)C(=O)NCC(=O)NCC(N)=O)C(C)C)C(C)C)C(=O)O) [g728]
0.00232 | 0.0193 | 12.8 | HSQGTFTSDYSKYLDSRRAQDFVQWLVAGGGGGGK([γGlu-Palmitoyl])-NH2 [g327]
0.00282 | 0.0247 | 12.6 | HSQGTFTSDYSKYLDSRRAQDFVQWLVAGGGGGGK(Palmitoyl)-NH2 (N-terminus assumed; SMILES CCCCCCCCCCCCCCCC(=O)NCCCC[C@H](NC(=O)CNC(=O)CNC(=O)CNC(=O)CNC(=O)CNC(=O)CNC(=O)[C@H](C)NC(=O)[C@@H](NC(=O)[C@H](CC(C)C)NC(=O)[C@H](Cc1c[nH]c2ccccc12)NC(=O)[C@H](CCC(N)=O)NC(=O)[C@@H](NC(=O)[C@H](Cc1ccccc1)NC(=O)[C@H](CC(=O)O)NC(=O)[C@H](CCC(N)=O)NC(=O)[C@H](C)NC(=O)[C@H](CCCNC(=N)N)NC(=O)[C@H](CCCNC(=N)N)NC(=O)[C@H](CO)NC(=O)[C@H](CC(=O)O)NC(=O)[C@H](CC(C)C)NC(=O)[C@H](Cc1ccc(O)cc1)NC(=O)[C@H](CCCCN)NC(=O)[C@H](CO)NC(=O)[C@H](Cc1ccc(O)cc1)NC(=O)[C@H](CC(=O)O)NC(=O)[C@H](CO)NC(=O)[C@@H](NC(=O)[C@H](Cc1ccccc1)NC(=O)[C@@H](NC(=O)CNC(=O)[C@H](CCC(N)=O)NC(=O)[C@H](CO)NC(=O)[C@@H](N)Cc1c[nH]cn1)[C@@H](C)O)[C@@H](C)O)C(C)C)C(C)C)C(N)=O) [g326]
2.46 | 12.9 | 11.8 | HSQGTFTSDYK([γGlu-Palmitoyl])KYLDSRRAQDFVQWLVAGG-NH2 (N-terminus assumed; SMILES CCCCCCCCCCCCCCCC(=O)N[C@@H](CCC(=O)NCCCC[C@H](NC(=O)[C@H](Cc1ccc(O)cc1)NC(=O)[C@H](CC(=O)O)NC(=O)[C@H](CO)NC(=O)[C@@H](NC(=O)[C@H](Cc1ccccc1)NC(=O)[C@@H](NC(=O)CNC(=O)[C@H](CCC(N)=O)NC(=O)[C@H](CO)NC(=O)[C@@H](N)Cc1c[nH]cn1)[C@@H](C)O)[C@@H](C)O)C(=O)N[C@@H](CCCCN)C(=O)N[C@@H](Cc1ccc(O)cc1)C(=O)N[C@@H](CC(C)C)C(=O)N[C@@H](CC(=O)O)C(=O)N[C@@H](CO)C(=O)N[C@@H](CCCNC(=N)N)C(=O)N[C@@H](CCCNC(=N)N)C(=O)N[C@@H](C)C(=O)N[C@@H](CCC(N)=O)C(=O)N[C@@H](CC(=O)O)C(=O)N[C@@H](Cc1ccccc1)C(=O)N[C@H](C(=O)N[C@@H](CCC(N)=O)C(=O)N[C@@H](Cc1c[nH]c2ccccc12)C(=O)N[C@@H](CC(C)C)C(=O)N[C@H](C(=O)N[C@@H](C)C(=O)NCC(=O)NCC(N)=O)C(C)C)C(C)C)C(=O)O) [g716]
0.00253 | 0.0204 | 0.998 | HSQGTFTSDK([γGlu-Palmitoyl])SKYLDSRRAQDFVQWLVAGG-NH2 (N-terminus assumed; SMILES CCCCCCCCCCCCCCCC(=O)N[C@@H](CCC(=O)NCCCC[C@H](NC(=O)[C@H](CC(=O)O)NC(=O)[C@H](CO)NC(=O)[C@@H](NC(=O)[C@H](Cc1ccccc1)NC(=O)[C@@H](NC(=O)CNC(=O)[C@H](CCC(N)=O)NC(=O)[C@H](CO)NC(=O)[C@@H](N)Cc1c[nH]cn1)[C@@H](C)O)[C@@H](C)O)C(=O)N[C@@H](CO)C(=O)N[C@@H](CCCCN)C(=O)N[C@@H](Cc1ccc(O)cc1)C(=O)N[C@@H](CC(C)C)C(=O)N[C@@H](CC(=O)O)C(=O)N[C@@H](CO)C(=O)N[C@@H](CCCNC(=N)N)C(=O)N[C@@H](CCCNC(=N)N)C(=O)N[C@@H](C)C(=O)N[C@@H](CCC(N)=O)C(=O)N[C@@H](CC(=O)O)C(=O)N[C@@H](Cc1ccccc1)C(=O)N[C@H](C(=O)N[C@@H](CCC(N)=O)C(=O)N[C@@H](Cc1c[nH]c2ccccc12)C(=O)N[C@@H](CC(C)C)C(=O)N[C@H](C(=O)N[C@@H](C)C(=O)NCC(=O)NCC(N)=O)C(C)C)C(C)C)C(=O)O) [g715]
0.0319 | 0.0729 | 209 | HSQGTFTSDYSKK([γGlu-Palmitoyl])LDSERAQDFVQWLVAGG-NH2 (N-terminus assumed; SMILES CCCCCCCCCCCCCCCC(=O)N[C@@H](CCC(=O)NCCCC[C@H](NC(=O)[C@H](CCCCN)NC(=O)[C@H](CO)NC(=O)[C@H](Cc1ccc(O)cc1)NC(=O)[C@H](CC(=O)O)NC(=O)[C@H](CO)NC(=O)[C@@H](NC(=O)[C@H](Cc1ccccc1)NC(=O)[C@@H](NC(=O)CNC(=O)[C@H](CCC(N)=O)NC(=O)[C@H](CO)NC(=O)[C@@H](N)Cc1c[nH]cn1)[C@@H](C)O)[C@@H](C)O)C(=O)N[C@@H](CC(C)C)C(=O)N[C@@H](CC(=O)O)C(=O)N[C@@H](CO)C(=O)N[C@@H](CCC(=O)O)C(=O)N[C@@H](CCCNC(=N)N)C(=O)N[C@@H](C)C(=O)N[C@@H](CCC(N)=O)C(=O)N[C@@H](CC(=O)O)C(=O)N[C@@H](Cc1ccccc1)C(=O)N[C@H](C(=O)N[C@@H](CCC(N)=O)C(=O)N[C@@H](Cc1c[nH]c2ccccc12)C(=O)N[C@@H](CC(C)C)C(=O)N[C@H](C(=O)N[C@@H](C)C(=O)NCC(=O)NCC(N)=O)C(C)C)C(C)C)C(=O)O) [g729]
0.00355 | 0.0106 | 1.72 | HSQGTFTSDYSKYLDSRRAQDFVQWLVAGGKNNRNNIAK(Palmitoyl)-NH2 (N-terminus assumed; SMILES CCCCCCCCCCCCCCCC(=O)NCCCC[C@H](NC(=O)[C@H](C)NC(=O)[C@@H](NC(=O)[C@H](CC(N)=O)NC(=O)[C@H](CC(N)=O)NC(=O)[C@H](CCCNC(=N)N)NC(=O)[C@H](CC(N)=O)NC(=O)[C@H](CC(N)=O)NC(=O)[C@H](CCCCN)NC(=O)CNC(=O)CNC(=O)[C@H](C)NC(=O)[C@@H](NC(=O)[C@H](CC(C)C)NC(=O)[C@H](Cc1c[nH]c2ccccc12)NC(=O)[C@H](CCC(N)=O)NC(=O)[C@@H](NC(=O)[C@H](Cc1ccccc1)NC(=O)[C@H](CC(=O)O)NC(=O)[C@H](CCC(N)=O)NC(=O)[C@H](C)NC(=O)[C@H](CCCNC(=N)N)NC(=O)[C@H](CCCNC(=N)N)NC(=O)[C@H](CO)NC(=O)[C@H](CC(=O)O)NC(=O)[C@H](CC(C)C)NC(=O)[C@H](Cc1ccc(O)cc1)NC(=O)[C@H](CCCCN)NC(=O)[C@H](CO)NC(=O)[C@H](Cc1ccc(O)cc1)NC(=O)[C@H](CC(=O)O)NC(=O)[C@H](CO)NC(=O)[C@@H](NC(=O)[C@H](Cc1ccccc1)NC(=O)[C@@H](NC(=O)CNC(=O)[C@H](CCC(N)=O)NC(=O)[C@H](CO)NC(=O)[C@@H](N)Cc1c[nH]cn1)[C@@H](C)O)[C@@H](C)O)C(C)C)C(C)C)[C@@H](C)CC)C(N)=O) [g322]
